Results: PMC6026032 (Brain research, 2018)
Changes are numbered by the printed parent chain.

B1: HA-tagged Cbln2 (wild type) (ligand, mouse, UniProt Q8BGU2 52-224, looked up)
chain: QNDTEPIVLEGKCLVVCDSSPSGDGAVTSSLGISVRSGSAKVAFSATRSTNHEPSEMSNRTMTIYFDQVLVNIGNHFDLASSIFVAPRKGIYSFSFHVVKVYNRQTIQVSLMQNGYPVISAFAGDQDVTREAASNGVLLLMEREDKVHLKLERGNLMGGWKYSTFSGFLVFPL
modifications: N-linked glycans at N53 and N110
B2: HA-tagged Cbln2 N110Q (ligand, mouse, UniProt Q8BGU2 52-224, looked up)
chain: B1 chain with N59Q
modifications: N-linked glycan at N53 only (monoglycosylated)
B3: HA-tagged Cbln2 N53Q (ligand, mouse, UniProt Q8BGU2 52-224, looked up)
chain: B1 chain with N2Q
modifications: N-linked glycan at N110 only (monoglycosylated)
B4: HA-tagged Cbln1 (wild type) (ligand, mouse, UniProt Q9R171 22-193, looked up)
chain: QNETEPIVLEGKCLVVCDSNPTSDPTGTALGISVRSGSAKVAFSAIRSTNHEPSEMSNRTMIIYFDQVLVNIGNNFDSERSTFIAPRKGIYSFNFHVVKVYNRQTIQVSLMLNGWPVISAFAGDQDVTREAASNGVLIQMEKGDRAYLKLERGNLMGGWKYSTFSGFLVFPL
modifications: N-linked glycans at N23 and N79; sialylated
B5: HA-tagged Cbln1 N79Q (ligand, mouse, UniProt Q9R171 22-193, looked up)
chain: B4 chain with N58Q
modifications: N-linked glycan at N23 only (monoglycosylated)
B6: HA-tagged Cbln1 N23Q (ligand, mouse, UniProt Q9R171 22-193, looked up)
chain: B4 chain with N2Q
modifications: N-linked glycan at N79 only (monoglycosylated)
B7: HA-tagged Cbln4 (wild type) (ligand, mouse, UniProt Q8BME9 25-198, looked up)
chain: QNDTEPIVLEGKCLVVCDSNPATDSKGSSSSPLGISVRAANSKVAFSAVRSTNHEPSEMSNKTRIIYFDQILVNVGNFFTLESVFVAPRKGIYSFSFHVIKVYQSQTIQVNLMLNGKPVISAFAGDKDVTREAATNGVLLYLDKEDKVYLKLEKGNLLGGWQYSTFSGFLVFPL
modifications: N-linked glycans at N26 and N85; sialylated
B8: HA-tagged Cbln4 N85Q (ligand, mouse, UniProt Q8BME9 25-198, looked up)
chain: B7 chain with N61Q
modifications: N-linked glycan at N26 only (monoglycosylated)

Target: the molecule itself
Test: native gel or EMSA

Stoichiometry N, 6:
B1, B2, B3, B4, B5, B6, B7, B8
